The record followed here is patent WO2009150539A2 (dated 2009).

The target in the test is T1, AahII toxin of Androctonus australis hector (Androctonus australis hector, UniProt P01484 20-83).
T1 construct: mature; also called Aahll
T1 sequence: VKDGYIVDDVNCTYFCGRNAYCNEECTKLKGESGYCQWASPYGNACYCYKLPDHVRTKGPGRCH
As to the kind of experiment: phage ELISA on coated AahII, Nb displayed on phage.

B1: NbAahII48 (VHH)
VHH: QVQLVESGGGSVQAGGSLRLSCAASGYTCTKFNMGWYRQAPGKEREFVATIRRDSTIYYADSVKGRFTISQDNAKNMVYLQMTSLKPEDSAMYYCSTRCVTSSVPYWGQGTQVTVSS
Take B1: the binding result is listed as “binds”.

B2: NbAahII45 (VHH)
VHH: QVQLQESGGGSVQAGGSLKLSCAASGYFYSSNYYMAWFRQAPGKEREGVAHINRSGRITLYADSVKGRFTMSRDNAKNTVYLQMNSLKPEDTAIYYCAAGVRTHMPPLASYGFDYWGQGTQVTVSS
For the molecule B2, the binding result is listed as “binds”.
